These sequences were tested on Escherichia coli TOP10 (assay: shrunken log2 fold change of peptide-encoding DNA abundance (4.5 h post-induction vs induction); higher = less antimicrobial activity (less host growth inhibition)). Conditions: time post-induction: 4.5 h; library: site-saturation at positions 5, 18, 19, 20.
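Further: peptides expressed intracellularly from a pBAD plasmid library in pooled LB shake-flask culture, induced with 0.3% L-arabinose, DNA abundance read by NGS, three biological replicates, DESeq2 with apeglm shrinkage.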

| Sequence | shrunken log2 fold change |
| --- | --- |
| RRIRARPPRLPRPRPRPWAGPRP | 0.233 |
| RRIRERPPRLPRPRPRPRRWPRP | 0.267 |
| RRIRMRPPRLPRPRPRPGKPPRP | 0.0496 |
| RRIRERPPRLPRPRPRPTKHPRP | -0.347 |
| RRIRKRPPRLPRPRPRPYGRPRP | -0.0362 |
| RRIRGRPPRLPRPRPRPEYHPRP | 0.155 |
| RRIRMRPPRLPRPRPRPKLNPRP | 0.851 |
| RRIRWRPPRLPRPRPRPEDMPRP | 0.282 |
| RRIRPRPPRLPRPRPRPESFPRP | -0.216 |
| RRIRERPPRLPRPRPRPNWQPRP | 0.103 |
| RRIRWRPPRLPRPRPRPPIGPRP | 0.324 |
| RRIRYRPPRLPRPRPRPSQLPRP | -0.506 |
| RRIRNRPPRLPRPRPRPVFMPRP | -0.181 |
| RRIRSRPPRLPRPRPRPKRDPRP | 0.0509 |
| RRIRFRPPRLPRPRPRPMVSPRP | -0.144 |
| RRIRARPPRLPRPRPRPIRRPRP | 0.24 |
| RRIRYRPPRLPRPRPRPVSGPRP | -0.128 |
| RRIRERPPRLPRPRPRPRPKPRP | 0.194 |
| RRIRVRPPRLPRPRPRPNKTPRP | 0.172 |
| RRIRKRPPRLPRPRPRPFPMPRP | 0.0227 |
| RRIRPRPPRLPRPRPRPPTTPRP | 0.327 |
| RRIRKRPPRLPRPRPRPCCSPRP | -0.189 |
| RRIRARPPRLPRPRPRPMDFPRP | 2.73 |
| RRIRQRPPRLPRPRPRPDHRPRP | 0.083 |
| RRIRSRPPRLPRPRPRPECTPRP | 0.169 |

| Sequence | shrunken log2 fold change |
| --- | --- |
| RRIRFRPPRLPRPRPRPQQLPRP | -0.437 |
| RRIRARPPRLPRPRPRPCMMPRP | -0.0864 |
| RRIRGRPPRLPRPRPRPDQVPRP | 0.656 |
| RRIRARPPRLPRPRPRPPRAPRP | 0.932 |
| RRIRVRPPRLPRPRPRPTHDPRP | 0.143 |
| RRIRLRPPRLPRPRPRPWTIPRP | -0.0385 |
| RRIRWRPPRLPRPRPRPTGHPRP | 0.317 |
| RRIRTRPPRLPRPRPRPYWCPRP | -0.53 |
| RRIRGRPPRLPRPRPRPTVMPRP | 0.074 |
| RRIRVRPPRLPRPRPRPLKDPRP | -0.242 |
| RRIRGRPPRLPRPRPRPKLSPRP | -0.0523 |
| RRIRYRPPRLPRPRPRPVAHPRP | -0.419 |
| RRIRVRPPRLPRPRPRPPCRPRP | 2.01 |
| RRIRYRPPRLPRPRPRPHVCPRP | -0.358 |
| RRIRPRPPRLPRPRPRPLRAPRP | 0.86 |
| RRIRRRPPRLPRPRPRPIMRPRP | 0.277 |
| RRIRGRPPRLPRPRPRPMLFPRP | 0.935 |
| RRIRNRPPRLPRPRPRPLNTPRP | -0.413 |
| RRIRYRPPRLPRPRPRPWFDPRP | -0.415 |
| RRIRARPPRLPRPRPRPWVAPRP | 0.285 |
| RRIRLRPPRLPRPRPRPRDYPRP | -0.00546 |
| RRIRYRPPRLPRPRPRPFSEPRP | 0.41 |
| RRIRERPPRLPRPRPRPTIDPRP | -0.227 |
| RRIRPRPPRLPRPRPRPHAHPRP | 0.00207 |
| RRIRCRPPRLPRPRPRPTYAPRP | 0.125 |

| Sequence | shrunken log2 fold change |
| --- | --- |
| RRIRLRPPRLPRPRPRPNFNPRP | 0.597 |
| RRIRKRPPRLPRPRPRPRYSPRP | -0.705 |
| RRIRGRPPRLPRPRPRPASKPRP | 0.453 |
| RRIRRRPPRLPRPRPRPMTRPRP | 0.315 |
| RRIRWRPPRLPRPRPRPKDFPRP | 0.0488 |
| RRIRERPPRLPRPRPRPHNPPRP | -0.417 |
| RRIRYRPPRLPRPRPRPVEIPRP | -0.00968 |
| RRIRSRPPRLPRPRPRPCAFPRP | -0.236 |
| RRIRMRPPRLPRPRPRPTPFPRP | 0.715 |
| RRIRWRPPRLPRPRPRPHNWPRP | 0.0898 |
| RRIRWRPPRLPRPRPRPTRHPRP | 0.37 |
| RRIRKRPPRLPRPRPRPNAHPRP | 0.208 |
| RRIRWRPPRLPRPRPRPQCEPRP | -0.0451 |
| RRIRERPPRLPRPRPRPRRTPRP | 0.176 |
| RRIRYRPPRLPRPRPRPRPHPRP | -0.0677 |
| RRIRRRPPRLPRPRPRPTYIPRP | -0.12 |
| RRIRPRPPRLPRPRPRPWKWPRP | 0.423 |
| RRIRERPPRLPRPRPRPYEMPRP | -1.05 |
| RRIRMRPPRLPRPRPRPCINPRP | -0.0644 |
| RRIRYRPPRLPRPRPRPYYHPRP | -0.283 |
| RRIRKRPPRLPRPRPRPETQPRP | -0.119 |
| RRIRWRPPRLPRPRPRPNELPRP | 0.073 |
| RRIRIRPPRLPRPRPRPHYAPRP | -0.121 |
| RRIRWRPPRLPRPRPRPIIFPRP | -0.303 |
| RRIRGRPPRLPRPRPRPRGLPRP | 1.05 |
